How the values were obtained:
[1] = substrate: COc1ccc2cc(CN)ccc2c1; experiment: Substrate activity with BPAO; format: biochemical, bovine; details: other: UV-vis spectrophotometry, pH 7.2 phosphate buffer, 30 °C
[2] = substrate: NCc1ccccc1; experiment: Substrate activity with BPAO; format: biochemical, bovine; details: other: UV-vis spectrophotometry, pH 7.2 phosphate buffer, 30 °C

B1: bovine plasma amine oxidase (BPAO) (Bos taurus) (protein)
chain: REEGGVGSEEGVGKQCHPSLPPRCPSRSPSDQPWTHPDQSQLFADLSREELTTVMSFLTQQLGPDLVDAAQARPSDNCVFSVELQLPPKAAALAHLDRGSPPPAREALAIVFFGGQPQPNVTELVVGPLPQPSYMRDVTVERHGGPLPYYRRPVLLREYLDIDQMIFNRELPQAAGVLHHCCSYKQGGQKLLTMNSAPRGVQSGDRSTWFGIYYNITKGGPYLHPVGLELLVDHKALDPADWTVQKVFFQGRYYENLAQLEEQFEAGQVNVVVIPDDGTGGFWSLKSQVPPGPTPPLQFHPQGPRFSVQGNRVASSLWTFSFGLGAFSGPRVFDVRFQGERLAYEISLQEAGAVYGGNTPAAMLTRYMDSGFGMGYFATPLIRGVDCPYLATYMDWHFVVESQTPKTLHDAFCVFEQNKGLPLRRHHSDFLSHYFGGVAQTVLVFRSVSTMLNYDYVWDMVFYPNGAIEVKLHATGYISSAFLFGAARRYGNQVGEHTLGPVHTHSAHYKVDLDVGGLENWVWAEDMAFVPTAIPWSPEHQIQRLQVTRKQLETEEQAAFPLGGASPRYLYLASKQSNKWGHPRGYRIQTVSFAGGPMPQNSPMERAFSWGRYQLAITQRKETEPSSSSVFNQNDPWTPTVDFSDFINNETIAGKDLVAWVTAGFLHIPHAEDIPNTVTVGNGVGFFLRPYNFFDQEPSMDSADSIYFREGQDAGSCEINPLACLPQAATCAPDLPVFSHGGYPEY
- Km [1]: 0.74±0.15 mM mM
- kcat [1]: 1.15 ± 0.06 s⁻¹
- kcat/Km [1]: 1550 M⁻¹ s⁻¹
- Km [2]: 1.77±0.24 mM mM
- kcat [2]: 1.23 ± 0.06 s⁻¹
- kcat/Km [2]: 695 M⁻¹ s⁻¹
